Results taken from patent US8088892B2, “Inhibitors of proteins from the Rho-GEF family” (Centre National de la Recherche Scientifique (C.N.R.S.), priority 2002, dated 2012).

T1: Dbl (Homo sapiens, UniProt P10911)
T1 construct: made in house
T1 sequence (P10911 495-826): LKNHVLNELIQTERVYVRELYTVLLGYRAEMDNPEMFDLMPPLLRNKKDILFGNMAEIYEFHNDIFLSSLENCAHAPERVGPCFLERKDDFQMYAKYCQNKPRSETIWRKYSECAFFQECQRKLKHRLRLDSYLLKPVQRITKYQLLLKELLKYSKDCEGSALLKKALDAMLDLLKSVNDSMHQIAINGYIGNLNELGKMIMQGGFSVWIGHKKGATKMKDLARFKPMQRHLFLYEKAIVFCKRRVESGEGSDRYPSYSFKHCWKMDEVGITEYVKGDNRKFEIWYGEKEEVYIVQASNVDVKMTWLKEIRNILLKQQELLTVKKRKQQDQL

B1: TRIAPα: aptamer of 154 amino acids: variable region of 42 amino acids inserted into the thioredoxin protein; tested as GST fusion (protein)
chain: MSDKIIHLTDDSFDTDVLKADGAILVDFWAEWCGPAREGADGAICGYNLATLVMLGPSERVFCPLCEPCSSDIYELMGPCKMIAPILDEIADEYQGKLTVAKLNIDQNPGTAPKYGIRGIPTLLLFKNGEVASATKVGALSKGQLKEFLDANLA

Assays:
[1] = system: TrioGEFD2-mediated RhoA activation; assay: RhoA activity assay (Rhotekin RBD pull-down) in COS cells; assay type: cell-based; settings: COS cells co-transfected, 48 hours
Text: FIG. 5B represents the inhibitory effect of TRIPα on TrioGEFD2-mediated RhoA activation in intact cells using the RhoA activity assay, COS cells were transfected with GFP-TRIPα (left line), TrioGEFD2 (middle line) or both (right line). Cell lysates were subjected to GST-pulldown using the recombinant RBD (RhoA binding domain) fragment of the RhoA-specific effector Rhotekin. The presence of the GTP-bound form of RhoA and of the total RhoA protein was detected using a monoclonal anti-RhoA antibody and is represented in the upper two panels. GFP-TRIPα and TrioGEFD2 expression in the cell lysates is shown in the lower two panels.
Quantification of the RhoA activity assay is shown in the right part of the figure. The y-axis represents the ratio between active RhoA and total RhoA, in arbitrary units.
The Inventors then wanted to assess the inhibition by TRIPα of TrioGEFD2-mediated activation of endogenous RhoA in intact cells. To do so, the RhoA activity assay was used to detect the active GTP-bound form of RhoA (Ren et al., 1999). Briefly, COS cells were transfected as described in FIG. 5A with TrioGEFD2 in absence or in the presence of GFP-TRIAPα. 48 hours after transfection, cell lysates were subjected to GST-pull down using 20 μg of the recombinant RBD (RhoA binding domain) fragment of the RhoA-specific effector Rhotekin, that binds only to the activated GTP-bound form of RhoA.

TrioDH2PH2L2051E = biological target: T2, TrioDH2PH2L2051E (Homo sapiens, UniProt O75962, L2110E); assay: Binding specificity of aptamers in yeast; design: key: +++^1 and +^1 represent respectively a full and a partial (see FIG. 1) binding capacity; +++^1 and +^1 represent respectively a full and a partial (see FIG. 1) binding capacity; −−^1 represents a lack of binding; settings: RhoGEF TrioDH2PH2L2051E
T2 construct: TrioGEFD2 (DH2PH2, amino acids 1848-2298); expressed in transfected cells; host or cells: yeast

Dbl = biological target: T1, Dbl; assay: In vitro GEF assay on RhoA; assay type: biochemical; design: key to in vitro GEF assay (inhibition): +++^2 and +^2 represent respectively a full and a partial (see FIG. 3) inhibitory effect; +++^2 and +^2 represent respectively a full and a partial (see FIG. 3) inhibitory effect; −−^2 represents a lack of inhibitory effect
Text: An in vitro guanine nucleotide exchange (GEF) assay was used to test whether the TrioGEFD2-binding aptamers could inhibit the catalytic activity of TrioGEFD2 towards RhoA. For this purpose, the aptamers TRIAPα, TRIAPβ and TRIAPγ (including the Trx gene) were excised from pEG202 as EcoRI/NotI fragments and cloned into pGEX4T1 EcoRI/NotI. The aptamers were then expressed and purified from bacteria as GST fusion proteins, using standard procedures (Smith and Johnson, 1988). GTPase-GST fusion proteins were prepared, loaded with [^3H]GDP and the guanine nucleotide release assays were performed as described (Debant et al., 1996), using recombinant GST-TrioGEFD2 (a.a. 1848-2298), TrioDH2 (a.a. 1848-2096). For each point, 0.3 μM GTPase was mixed with or without 0.4 μM GEF in presence of non-labeled GTP, and the reaction mix was filtered after 0 min and 15 mm reaction at 25° C. The catalytic activity of TrioGEFD2 was thus measured by the decrease of the GTPase-associated radioactivity. The results are expressed as the ratio “exchange after 15 min over exchange after 0 min” (% bound [^3H]GDP-RhoA). To measure the effect of the aptamers on the exchange activity, a 20-fold molar excess of GST-TRIAPs was pre-incubated with GEFD2 (or GEFD1) for 30 min on ice before the exchange assay was carried out. For each experiment, data were obtained in triplicate. […]

Molecule | Inhibition of TrioGEFD2-mediated RhoA activation in intact cells [1] | Binding in yeast (TrioDH2PH2L2051E) | in vitro GEF assay (inhibition) (Dbl; RhoGEF Dbl) | Effect on Dbl exchange activity (Dbl; data not shown)
AREGADGAICGYNLATLVMLGPSERVFCPLCEPCSSDIYELM [TRIPα, 42-amino acid peptide corresponding to the variable region of TRIAPα] | able to inhibit TrioGEFD2-mediated RhoA activation | – | – | –
B1 | – | +++^1 | −−^2 | not affected
